Source: patent US20110118131A1 (published 2011)
Residue numbers refer to the chain shown, from its start. Numbers in names are those of the source.

B1: XPA23 Fab, heavy chain V50N (Fab, V domains shown)
VH: EVQLLESGGGLVQPGGSLRLSCAASGFTFSKYFMFWVRQAPGKGLEWVSNISPSGGMTRYADSVKGRFTISRDNSKNTLYLQMNSLRAEDTAVYYCARVGYGGNSDYWGQGTLVTVSS
VL: DIQMTQSPSSVSASVGDRLTIICRASQDINRWLAWYQQTPGNAPKLLIHSATSLQSGVPSRFSGSGSGTDFTLTINSLQPEDFATYYCQQADSFPLTFGGGTKVEIK
B2: XPA23 Fab, heavy chain F35S (Fab, V domains shown)
VH: B1 VH with F35S, N50V
VL: B1 VL
B3: XPA23 Fab, heavy chain G56N (Fab, V domains shown)
VH: B1 VH with N50V, G56N
VL: B1 VL
B4: XPA23 Fab, heavy chain G55E (Fab, V domains shown)
VH: B1 VH with N50V, G55E
VL: B1 VL
B5: XPA23 Fab, heavy chain G55K (Fab, V domains shown)
VH: B1 VH with N50V, G55K
VL: B1 VL
B6: XPA23 Fab, heavy chain F35K (Fab, V domains shown)
VH: B1 VH with F35K, N50V
VL: B1 VL
B7: XPA23 Fab, heavy chain G55Y (Fab, V domains shown)
VH: B1 VH with N50V, G55Y
VL: B1 VL
B8: XPA23 Fab, heavy chain D106S (Fab, V domains shown)
VH: B1 VH with N50V, D106S
VL: B1 VL
B9: XPA23 Fab, heavy chain G56F (Fab, V domains shown)
VH: B1 VH with N50V, G56F
VL: B1 VL
B10: XPA23 Fab, heavy chain G55S (Fab, V domains shown)
VH: B1 VH with N50V, G55S
VL: B1 VL
B11: XPA23 Fab, heavy chain F33S (Fab, V domains shown)
VH: B1 VH with F33S, N50V
VL: B1 VL
B12: XPA23 Fab, heavy chain D106E (Fab, V domains shown)
VH: B1 VH with N50V, D106E
VL: B1 VL
B13: XPA23 Fab, heavy chain F35R (Fab, V domains shown)
VH: B1 VH with F35R, N50V
VL: B1 VL
B14: XPA23 Fab, heavy chain F33R (Fab, V domains shown)
VH: B1 VH with F33R, N50V
VL: B1 VL
B15: XPA23 Fab, heavy chain G56Q (Fab, V domains shown)
VH: B1 VH with N50V, G56Q
VL: B1 VL
B16: XPA23 Fab, heavy chain D106W (Fab, V domains shown)
VH: B1 VH with N50V, D106W
VL: B1 VL
B17: XPA23 Fab, heavy chain D106F (Fab, V domains shown)
VH: B1 VH with N50V, D106F
VL: B1 VL
B18: XPA23 Fab, heavy chain F35E (Fab, V domains shown)
VH: B1 VH with F35E, N50V
VL: B1 VL
B19: XPA23 Fab, heavy chain G56E (Fab, V domains shown)
VH: B1 VH with N50V, G56E
VL: B1 VL
B20: XPA23 Fab, heavy chain F33E (Fab, V domains shown)
VH: B1 VH with F33E, N50V
VL: B1 VL
B21: XPA23 Fab, heavy chain F33W (Fab, V domains shown)
VH: B1 VH with F33W, N50V
VL: B1 VL
B22: XPA23 Fab, heavy chain F35W (Fab, V domains shown)
VH: B1 VH with F35W, N50V
VL: B1 VL
B23: XPA23 Fab, heavy chain G56K (Fab, V domains shown)
VH: B1 VH with N50V, G56K
VL: B1 VL
B24: XPA23 Fab, heavy chain G56D (Fab, V domains shown)
VH: B1 VH with N50V, G56D
VL: B1 VL
B25: XPA23 Fab, heavy chain F33Y (Fab, V domains shown)
VH: B1 VH with F33Y, N50V
VL: B1 VL
B26: XPA23 Fab, heavy chain G56H (Fab, V domains shown)
VH: B1 VH with N50V, G56H
VL: B1 VL
B27: XPA23 Fab, heavy chain F35N (Fab, V domains shown)
VH: B1 VH with F35N, N50V
VL: B1 VL
B28: XPA23 Fab, heavy chain D106H (Fab, V domains shown)
VH: B1 VH with N50V, D106H
VL: B1 VL
B29: XPA23 Fab, heavy chain F33D (Fab, V domains shown)
VH: B1 VH with F33D, N50V
VL: B1 VL
B30: XPA23 Fab, heavy chain G55R (Fab, V domains shown)
VH: B1 VH with N50V, G55R
VL: B1 VL
B31: XPA23 Fab, heavy chain F33Q (Fab, V domains shown)
VH: B1 VH with F33Q, N50V
VL: B1 VL
B32: XPA23 Fab, heavy chain F35Q (Fab, V domains shown)
VH: B1 VH with F35Q, N50V
VL: B1 VL
B33: XPA23 Fab, heavy chain F33H (Fab, V domains shown)
VH: B1 VH with F33H, N50V
VL: B1 VL
B34: XPA23 Fab, heavy chain D106Q (Fab, V domains shown)
VH: B1 VH with N50V, D106Q
VL: B1 VL
B35: XPA23 Fab, heavy chain F35D (Fab, V domains shown)
VH: B1 VH with F35D, N50V
VL: B1 VL
B36: XPA23 Fab, heavy chain F33K (Fab, V domains shown)
VH: B1 VH with F33K, N50V
VL: B1 VL
B37: XPA23 Fab, heavy chain G55D (Fab, V domains shown)
VH: B1 VH with N50V, G55D
VL: B1 VL
B38: XPA23 Fab, heavy chain D106N (Fab, V domains shown)
VH: B1 VH with N50V, D106N
VL: B1 VL
B39: XPA23 Fab, heavy chain F35H (Fab, V domains shown)
VH: B1 VH with F35H, N50V
VL: B1 VL
B40: XPA23 Fab, heavy chain G55N (Fab, V domains shown)
VH: B1 VH with N50V, G55N
VL: B1 VL
B41: XPA23 Fab, heavy chain G55Q (Fab, V domains shown)
VH: B1 VH with N50V, G55Q
VL: B1 VL
B42: XPA23 Fab, heavy chain F35Y (Fab, V domains shown)
VH: B1 VH with F35Y, N50V
VL: B1 VL
B43: XPA23 Fab, heavy chain D106Y (Fab, V domains shown)
VH: B1 VH with N50V, D106Y
VL: B1 VL
B44: XPA23 Fab, heavy chain D106K (Fab, V domains shown)
VH: B1 VH with N50V, D106K
VL: B1 VL
B45: XPA23 Fab, heavy chain D106R (Fab, V domains shown)
VH: B1 VH with N50V, D106R
VL: B1 VL
B46: XPA23 Fab, heavy chain F33N (Fab, V domains shown)
VH: B1 VH with F33N, N50V
VL: B1 VL

Target: T1, IL-1beta (UniProt P01584 117-269)
T1 construct: also called IL-1β
Experiment: Biacore

fold difference in affinity vs parental [fold]	binding result	Binder
0.03		B1
0.09		B2
1.06		B3
0.11		B4
0.11		B5
0.68		B6
0.08		B7
0.03		B8
1.41		B9
1.02		B10
0.73		B11
0.04		B12
	no binding	B13
	no binding	B14
1.31		B15
	no binding	B16
	no binding	B17
	no binding	B18
1.21		B19
0.86		B20
0.79		B21
	no binding	B22
2.05		B23

fold difference in affinity vs parental [fold]	binding result	Binder
0.05		B24
0.77		B25
0.82		B26
0.86		B27
0.02		B28
0.92		B29
0.95		B30
0.78		B31
	no binding	B32
	no binding	B33
0.02		B34
0.06		B35
0.85		B36
	no binding	B37
0.07		B38
	no binding	B39
0.1		B40
0.9		B41
0.85		B42
	no binding	B43
0.04		B44
0.06		B45
0.97		B46
